# Laboratory results reported in patent US20170224771A1, “HISTATINS AS THERAPEUTIC AGENTS FOR OCULAR SURFACE DISEASE” (RAPID PATHOGEN SCREENING, INC., priority 2014, published 2017).
# Legend:
# [1] = Stability of ocular histatin formulation, determined by mass spectroscopy; assay type: physicochemical; details: 100 μg/mL in commercially-available gel tears lubricating eye drop with 0.25% PEG in aqueous buffered borate salt solution
# Experimental: In some embodiments, the ocular histatin formulation is stable both at room temperature (25° C.) and at 45° C. for at least 90 days.
# [2] = system: cultured ocular epithelial cells; details: cultured ocular epithelial cells in vitro; cited from earlier work
# MMP-2 = target: T1, MMP-2 (Homo sapiens, UniProt P08253); details: host protease; according to Gusman; cited from earlier work
# T1 sequence (P08253 110-660): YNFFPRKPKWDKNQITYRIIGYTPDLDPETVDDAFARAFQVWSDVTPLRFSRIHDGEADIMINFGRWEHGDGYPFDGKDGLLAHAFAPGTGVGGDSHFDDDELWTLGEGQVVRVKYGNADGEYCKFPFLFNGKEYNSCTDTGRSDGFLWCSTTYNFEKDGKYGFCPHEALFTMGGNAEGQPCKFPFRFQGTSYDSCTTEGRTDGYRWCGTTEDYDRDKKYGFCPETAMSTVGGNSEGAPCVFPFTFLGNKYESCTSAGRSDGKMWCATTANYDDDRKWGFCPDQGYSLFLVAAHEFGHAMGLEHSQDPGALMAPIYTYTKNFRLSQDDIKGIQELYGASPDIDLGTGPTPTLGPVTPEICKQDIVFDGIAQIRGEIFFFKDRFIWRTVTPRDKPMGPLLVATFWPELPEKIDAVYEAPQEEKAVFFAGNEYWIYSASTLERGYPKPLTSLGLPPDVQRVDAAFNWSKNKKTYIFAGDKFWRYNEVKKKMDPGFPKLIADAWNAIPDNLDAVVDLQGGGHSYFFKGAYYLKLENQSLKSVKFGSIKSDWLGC
# MMP-9 = MMP-9 (Homo sapiens, UniProt P14780); details: host protease; according to Gusman; cited from earlier work
# Chain of MMP-9 (P14780 94-707): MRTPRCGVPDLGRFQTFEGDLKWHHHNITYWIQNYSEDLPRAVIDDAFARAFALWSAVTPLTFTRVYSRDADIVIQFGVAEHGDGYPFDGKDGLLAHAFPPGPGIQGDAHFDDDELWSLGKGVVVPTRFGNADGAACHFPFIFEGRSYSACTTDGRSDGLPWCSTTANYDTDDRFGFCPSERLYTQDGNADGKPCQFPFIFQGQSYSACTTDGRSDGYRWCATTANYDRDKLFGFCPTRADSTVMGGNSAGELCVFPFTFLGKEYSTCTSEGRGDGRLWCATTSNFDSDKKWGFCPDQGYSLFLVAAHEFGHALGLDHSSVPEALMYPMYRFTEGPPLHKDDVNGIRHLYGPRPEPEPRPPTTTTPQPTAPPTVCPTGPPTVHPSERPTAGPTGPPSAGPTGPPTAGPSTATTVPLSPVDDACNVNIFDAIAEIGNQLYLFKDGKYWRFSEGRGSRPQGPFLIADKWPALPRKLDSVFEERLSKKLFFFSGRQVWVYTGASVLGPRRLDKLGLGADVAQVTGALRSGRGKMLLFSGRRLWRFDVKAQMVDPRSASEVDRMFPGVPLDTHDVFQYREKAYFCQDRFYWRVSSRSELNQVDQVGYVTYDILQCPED
substance,measurement,setting,value
cyclized histatin 1: sortase cyclized histatin (including all of Histatin 1) (GGDSHEKRHHGYRRKFHEKHHSHREFPFYGDYGSNYLYDNLPET; sortase cyclization),time found to be stable,[1]; 25° C.,at least 505 days
same,time found to be stable,[1]; 45° C.,at least 90 days
Benzalkonium chloride,cytotoxicity,[2],significant cytotoxicity
histatin 5: naturally occurring oral salivary peptide; SEQ ID NO: 30 peptide,inhibition of MMP-2 activity,MMP-2,greatly inhibited
same,inhibition of MMP-9 activity,MMP-9,greatly inhibited
